Legend:
[1] = target: NS32070-2078 / HLA B*0702 (DENV2 strain S221; human)
[2] = target: NS31753-1761 / HLA B*0702 (DENV2 strain S221; human)
[3] = target: NS31700-1709 / HLA B*0702 (DENV2 strain S221; human)
[4] = target: NS52885-2894 / HLA B*0702 (DENV2 strain S221; human)
[5] = target: NS4B2296-2304 / HLA B*0702 (DENV2 strain S221; human)
[6] = target: NS2A1212-1221 / HLA B*0702 (DENV2 strain S221; human)
[7] = target: NS31808-1817 / HLA B*0702 (DENV2 strain S221; human)
[8] = target: NS53077-3085 / HLA B*0702 (DENV2 strain S221; human)
[9] = target: NS52646-2655 / HLA B*0702 (DENV2 strain S221; human)
[10] = target: NS4B2280-2289 / HLA B*0702 (DENV2 strain S221; human)
[11] = target: NS31682-1690 / HLA B*0702 (DENV2 strain S221; human)
[12] = target: NS52966-2980 / HLA DRB1*0101 (DENV2 strain S221; human)
[13] = target: NS31742-1756 / HLA DRB1*0101 (DENV2 strain S221; human)
[14] = target: NS2A1199-1213 / HLA DRB1*0101 (DENV2 strain S221; human)
[15] = target: C53-67 / HLA DRB1*0101 (DENV2 strain S221; human)
[16] = target: NS2B1356-1370 / HLA DRB1*0101 (DENV2 strain S221; human)
[17] = target: purified HLA A*0201 molecules (human); assay: inhibition of radiolabeled probe peptide binding to purified HLA
[18] = target: NS53079-3087 / HLA A*1101 (DENV2 strain S221; human)
[19] = target: NS53283-3291 / HLA A*1101 (DENV2 strain S221; human)
[20] = target: NS4B2315-2323 / HLA A*1101 (DENV2 strain S221; human)
[21] = target: NS31863-1871 / HLA A*1101 (DENV2 strain S221; human)
[22] = target: NS4A2074-2083 / HLA A*1101 (DENV2 strain S221; human)
[23] = target: NS31608-1617 / HLA A*1101 (DENV2 strain S221; human)
[24] = target: NS31509-1517 / HLA A*1101 (DENV2 strain S221; human)
[25] = target: target splenocytes pulsed with NS2B108-122, NS3198-212 and NS3237-251 together (I-A^b-restricted)
[26] = target: NS4B2280-2289 / HLA B*0702 (DENV2 strain S221; human); remark: listed apart in the source
[27] = target: NS31465-1473 / HLA A*0201 (DENV2 strain S221; human)
[28] = target: NS32013-2022 / HLA A*0201 (DENV2 strain S221; human)
[29] = target: NS53058-3066 / HLA A*0201 (DENV2 strain S221; human)
[30] = target: NS31681-1689 / HLA A*0201 (DENV2 strain S221; human)
[31] = target: NS2B1383-1391 / HLA A*0201 (DENV2 strain S221; human)
[32] = target: NS4A2140-2148 / HLA A*0201 (DENV2 strain S221; human)
[33] = target: E631-639 / HLA A*0201 (DENV2 strain S221; human)
[34] = target: E451-459 / HLA A*0101 (DENV2 strain S221; human)
[35] = target: NS2A1251-1259 / HLA A*0101 (DENV2 strain S221; human)
[36] = target: NS4B2399-2407 / HLA A*0101 (DENV2 strain S221; human)
[37] = target: NS11090-1099 / HLA A*0101 (DENV2 strain S221; human)
[38] = target: NS2A1192-1200 / HLA A*0101 (DENV2 strain S221; human)
[39] = target: NS53375-3383 / HLA A*0101 (DENV2 strain S221; human)
[40] = target: NS2B1355-1363 / HLA A*0201 (DENV2 strain S221; human)
[41] = target: NS53112-3121 / HLA A*1101 (DENV2 strain S221; human)
[42] = target: NS31978-1987 / HLA B*0702 (DENV2 strain S221; human)
[43] = target: NS52608-2616 / HLA A*1101 (DENV2 strain S221; human)
[44] = target: NS4A2205-2213 / HLA A*0201 (DENV2 strain S221; human)
[45] = target: NS2B1450-1459 / HLA A*0201 (DENV2 strain S221; human)
[46] = target: purified HLA B*0702 molecules (human); assay: inhibition of radiolabeled probe peptide binding to purified HLA

Work on “splenic CD8+ T cells of DENV2 (S221)-infected HLA B*0702 transgenic IFN-α/βR-/- mice (cells without a defined receptor)” yielded a T cell responses [SFC] mouse (IFNγ ELISPOT) [1] of 1850 SFC, a T cell responses [SFC] mouse (IFNγ ELISPOT) [2] of 509 SFC and a T cell responses [SFC] mouse (IFNγ ELISPOT) [3] of 1060 SFC. The T cell responses [SFC] mouse (IFNγ ELISPOT) [4] was 811 SFC, the T cell responses [SFC] mouse (IFNγ ELISPOT) [5] was 1010 SFC and the T cell responses [SFC] mouse (IFNγ ELISPOT) [6] was 400 SFC. It also gave a T cell responses [SFC] mouse (IFNγ ELISPOT) [7] of 364 SFC, a T cell responses [SFC] mouse (IFNγ ELISPOT) [8] of 487 SFC and a T cell responses [SFC] mouse (IFNγ ELISPOT) [9] of 994 SFC. The T cell responses [SFC] mouse (IFNγ ELISPOT) [10] was 1540 SFC and the T cell responses [SFC] mouse (IFNγ ELISPOT) [11] was 1290 SFC.
“splenic CD4+ T cells of DENV2 (S221)-infected HLA DRB1*0101 transgenic IFN-α/βR-/- mice (cells without a defined receptor)” gave a T cell responses [SFC] mouse (IFNγ ELISPOT) [12] of 851 SFC, a T cell responses [SFC] mouse (IFNγ ELISPOT) [13] of 448 SFC and a T cell responses [SFC] mouse (IFNγ ELISPOT) [14] of 764 SFC. The T cell responses [SFC] mouse (IFNγ ELISPOT) [15] was 77 SFC and the T cell responses [SFC] mouse (IFNγ ELISPOT) [16] was 65 SFC.
For NS31681-1689 (peptide), the IC50 [17] was 18 nM.
Work on “splenic CD8+ T cells of DENV2 (S221)-infected HLA A*1101 transgenic IFN-α/βR-/- mice (cells without a defined receptor)” yielded a T cell responses [SFC] mouse (IFNγ ELISPOT) [18] of 105 SFC, a T cell responses [SFC] mouse (IFNγ ELISPOT) [19] of 358 SFC and a T cell responses [SFC] mouse (IFNγ ELISPOT) [20] of 712 SFC. It also gave a T cell responses [SFC] mouse (IFNγ ELISPOT) [21] of 208 SFC, a T cell responses [SFC] mouse (IFNγ ELISPOT) [22] of 148 SFC and a T cell responses [SFC] mouse (IFNγ ELISPOT) [23] of 1000 SFC. For the same substance, the T cell responses [SFC] mouse (IFNγ ELISPOT) [24] was 436 SFC.
Work on “CD4+ T cells of DENV2-infected IFN-α/βR-/- mice (C57BL/6 background) (cells without a defined receptor)” yielded an in vivo cytotoxicity assay, percentage killing [25] of 30%.
Substance “splenic CD8+ T cells of DENV2 (S221)-infected HLA B*0702 transgenic IFN-α/βR+/+ mice (cells without a defined receptor)” has an IFNγ ELISPOT (SFC/10^6 CD8+ T cells) [26] of 50.
“splenic CD8+ T cells of DENV2 (S221)-infected HLA A*0201 transgenic IFN-α/βR-/- mice (cells without a defined receptor)” showed a T cell responses [SFC] mouse (IFNγ ELISPOT) [27] of 207 SFC, a T cell responses [SFC] mouse (IFNγ ELISPOT) [28] of 417 SFC and a T cell responses [SFC] mouse (IFNγ ELISPOT) [29] of 353 SFC. The T cell responses [SFC] mouse (IFNγ ELISPOT) [30] was 299 SFC, the T cell responses [SFC] mouse (IFNγ ELISPOT) [31] was 519 SFC and the T cell responses [SFC] mouse (IFNγ ELISPOT) [32] was 384 SFC. It also gave a T cell responses [SFC] mouse (IFNγ ELISPOT) [33] of 265 SFC.
With “splenic CD8+ T cells of DENV2 (S221)-infected HLA A*0101 transgenic IFN-α/βR-/- mice (cells without a defined receptor)” the T cell responses [SFC] mouse (IFNγ ELISPOT) [34] was 327 SFC, the T cell responses [SFC] mouse (IFNγ ELISPOT) [35] was 465 SFC and the T cell responses [SFC] mouse (IFNγ ELISPOT) [36] was 153 SFC. It also gave a T cell responses [SFC] mouse (IFNγ ELISPOT) [37] of 228 SFC, a T cell responses [SFC] mouse (IFNγ ELISPOT) [38] of 430 SFC and a T cell responses [SFC] mouse (IFNγ ELISPOT) [39] of 495 SFC.
“PBMC from HLA matched DENV seropositive human donors (cells without a defined receptor)” gave a T cell responses [SFC] human (IFNγ ELISPOT) [40] of 417 SFC, a T cell responses [SFC] human (IFNγ ELISPOT) [34] of 67 SFC and a T cell responses [SFC] human (IFNγ ELISPOT) [18] of 0 SFC. For the same substance, the T cell responses [SFC] human (IFNγ ELISPOT) [27] was 495 SFC, the T cell responses [SFC] human (IFNγ ELISPOT) [35] was 143 SFC and the T cell responses [SFC] human (IFNγ ELISPOT) [2] was 410 SFC. For the same substance, the T cell responses [SFC] human (IFNγ ELISPOT) [19] was 800 SFC, the T cell responses [SFC] human (IFNγ ELISPOT) [12] was 729 SFC and the T cell responses [SFC] human (IFNγ ELISPOT) [28] was 312 SFC. It also gave a T cell responses [SFC] human (IFNγ ELISPOT) [41] of 0 SFC, a T cell responses [SFC] human (IFNγ ELISPOT) [29] of 597 SFC and a T cell responses [SFC] human (IFNγ ELISPOT) [3] of 1430 SFC. For the same substance, the T cell responses [SFC] human (IFNγ ELISPOT) [20] was 0 SFC, the T cell responses [SFC] human (IFNγ ELISPOT) [21] was 0 SFC and the T cell responses [SFC] human (IFNγ ELISPOT) [30] was 401 SFC. The T cell responses [SFC] human (IFNγ ELISPOT) [4] was 1340 SFC, the T cell responses [SFC] human (IFNγ ELISPOT) [5] was 460 SFC and the T cell responses [SFC] human (IFNγ ELISPOT) [14] was 249 SFC. The T cell responses [SFC] human (IFNγ ELISPOT) [22] was 3090 SFC, the T cell responses [SFC] human (IFNγ ELISPOT) [31] was 434 SFC and the T cell responses [SFC] human (IFNγ ELISPOT) [42] was 1820 SFC. The T cell responses [SFC] human (IFNγ ELISPOT) [32] was 297 SFC, the T cell responses [SFC] human (IFNγ ELISPOT) [43] was 0 SFC and the T cell responses [SFC] human (IFNγ ELISPOT) [44] was 301 SFC. It also gave a T cell responses [SFC] human (IFNγ ELISPOT) [15] of 314 SFC, a T cell responses [SFC] human (IFNγ ELISPOT) [6] of 335 SFC and a T cell responses [SFC] human (IFNγ ELISPOT) [36] of 92 SFC. The T cell responses [SFC] human (IFNγ ELISPOT) [16] was 279 SFC, the T cell responses [SFC] human (IFNγ ELISPOT) [7] was 232 SFC and the T cell responses [SFC] human (IFNγ ELISPOT) [8] was 390 SFC. It also gave a T cell responses [SFC] human (IFNγ ELISPOT) [9] of 0 SFC, a T cell responses [SFC] human (IFNγ ELISPOT) [37] of 104 SFC and a T cell responses [SFC] human (IFNγ ELISPOT) [10] of 0 SFC. For the same substance, the T cell responses [SFC] human (IFNγ ELISPOT) [33] was 393 SFC, the T cell responses [SFC] human (IFNγ ELISPOT) [23] was 880 SFC and the T cell responses [SFC] human (IFNγ ELISPOT) [24] was 0 SFC. It also gave a T cell responses [SFC] human (IFNγ ELISPOT) [11] of 207 SFC, a T cell responses [SFC] human (IFNγ ELISPOT) [45] of 588 SFC and a T cell responses [SFC] human (IFNγ ELISPOT) [39] of 143 SFC.
NS4B2296-2305 (peptide) was tested, and the IC50 [46] was greater than 1000 nM.
